The results in this text go back to patent publication US12411143B2, “CD146 and uses thereof as a biomarker and as a therapeutic target in the diagnosis and treatment of fibrosis” (ASSISTANCE PUBLIQUE HÔPITAUX DE MARSEILLE, priority 2018, dated 2025).

The test system of assay [1] is chorio-allantoic membrane of the chick embryo. Kind of assay: Chorio-allantoic membrane assay. It is filed as in vivo. To be noted: 25 ng/ml or 50 ng/ml, 48 h. The procedure:
D: Yolk sac membrane assays were performed in the presence of 25 ng/ml or 50 ng/ml I5-13-sCD146 and I10-sCD146 for 48 h and compared to control. Representative pictures of 4 different experiments are given.
The chorio-allantoic membrane of the chick embryo assay (CAM) was performed using a previously described protocol (Beckers et al., 1997).
The chorio-allantoic membrane of the chick embryo assay (CAM) was surgically removed and fixed in 10% buffered formaldehyde for 10 hours, dehydrated in graded alcohol, cleared in xylene and embedded in paraffin. 5 μm thick sections were cut in a plane parallel to the surface of the CAM and stained by hematoxylin-eosin which was observed under a light photomicroscope.

Assay [2] concerns ECFC. Kind of assay: ECFC proliferation assay. To be noted: recombinant proteins 50 ng/ml, in the presence of GM6001 10 μM. The assay is classed as cell-based, human. As for the experimental part: A: Effect of siRNA targeting I10-sCD146 and I5-13-sCD146 on proliferation of ECFC. Experiments were performed in the presence of GM6001 10 μM. Results are mean values of 4 different experiments and representative pictures of the cells in one experiment are given.
B: Effect of over-expression of I10-sCD146 (p-I10-sCD146), I5-13-sCD146 (p-I5-13-sCD146) and shed sCD146 (p-shed sCD146) realized by plasmid transfection on proliferation of ECFC. Experiments were performed in the presence of GM6001 10 μM.
C: Effect of recombinant proteins I10-sCD146, I5-13-sCD146 and shed sCD146 50 ng/ml on the proliferation of ECFC. Experiments were performed in the presence of GM6001 10 μM. Results are mean values of 4 different experiments.
Experiments were performed as previously described (Stalin et al., 2013).

The test system of assay [3] is renal and cardiac endothelial cells. Kind of assay: In vitro endothelial-mesenchymal transition. It is filed as cell-based.
Assay [4] concerns Human cardiac fibroblasts (HCFs). Kind of assay: Cell proliferation of human cardiac fibroblasts (BrdU assay). The assay is classed as cell-based. As for the experimental part: Human cardiac fibroblasts (HCFs) (PromoCell) are grown in Fibroblast Growth Medium 3 Supplement Pack (PromoCell) in an environment at 37° C. with controlled atmosphere. The HCFs are grown between passages 3 and 7.
To perform the stimulations, the fibroblasts are seeded at a density of 30 000 cells/cm^2 in complete culture medium. After 24 hours of adhesion, the cell culture medium is replaced with medium not containing growth factor (minimal medium) for 4 hours.
This medium is then replaced with minimal medium supplemented with 25, 50, 75 or 100 ng/mL of CD146s or with 2.5, 5 or 10 ng/mL of TGF-β for the proliferation study.
Cell proliferation is determined using a proliferation kit (BrdU Assay, Roche). An anti-BrdU antibody diluted 1/100 in its diluent solution is incubated for 90 minutes at 37° C. After removal and rinsing of excess antibody, a second antibody directed specifically against anti-BrdU and coupled to peroxidase is incubated for 30 minutes at room temperature and then removed. Detection is performed by the addition of 100 μL of enzyme substrate. […] Staining intensity, proportional to BrdU incorporation, is read on a spectrophotometer at 450 nm. The results are calculated by subtracting the background noise observed in a culture well containing no cells but having received the same amount of BrdU. Percentage of proliferation is then calculated for each condition. […]

Assay [5] relates to ECFC. Kind of assay: Permeability of ECFC monolayer to dextran-FITC. It is filed as cell-based, human. To be noted: treatment with recombinant proteins. As for the experimental part:
D: ECFC were transfected with siRNA targeting ADAM10 or Tace and with a control siRNA (C). The permeability of the ECFC monolayer grown on semi-permeable filters was determined using dextran-FITC. Results are the mean values+/−SEM of 3 experiments.
E: ECFC were transfected with plasmid vectors encoding ADAM10 (p-ADAM10) or Tace (p-Tace) and with a control plasmid vector (C). The permeability of the ECFC monolayer grown on semi-permeable filters was determined using dextran-FITC. Results are the mean values+/−SEM of 3 experiments. *: P<0.05, **: P<0.01, ***: P<0.001, experimental vs Control.
ECFC were seeded at 60,000 cells per well on membrane inserts (porosity 1 μm) of a 24-multiwell double chamber system (Multiwell Insert System, BD Biosciences, Le Pont de Claix, France) after siRNA transfection or not. Confluent endothelial monolayers were then incubated for 24 h in EGM-2 medium in the presence or absence of the different forms of sCD146. The FITC-dextran (sigma) was added at the apical surface of the cells and was allowed to migrate for 1.5 h at 37° C. Basolateral FITC-dextran was then measured using a Cytofluor Series 4000 Fluorescence (PerSeptiveBiosystems, Framingham, MA).

Take “sCD146: recombinant human soluble form of CD146 corresponding to the shed sCD146, obtained from Biocytex”: the “vascularisation in chorio-allantoic membrane assay” value (“vascularisation” for short) in assay [1] was “increased vascularisation”. Moreover, in the assay on ECFC [2], the endothelial cells proliferation result is “increased endothelial cells proliferation”. Further, in assay [3], the endothelial-mesenchymal transition result was “induces in vitro an endothelial-mesenchymal transition”. For the same molecule, the “cell proliferation of cardiac fibroblasts” value in assay [4] (25, 50, 75 or 100 ng/mL of CD146s) was “significant, dose-dependent increase in cell proliferation”. For the same molecule, the “amount giving the maximum pro-proliferative effect” value in assay [4] (HCFs) is given as 50 ng/mL.

B1: rh-I5-13-sCD146: recombinant spliced variant of soluble CD146 containing introns 5 and 13, SEQ ID NO: 8 (protein, listed as Homo sapiens)
chain: MVYIVRQFLLYNVSGSVYLDQLIVLLTAKFSILRIAGSRVHHSPFSGHLDGCSFLSLQHSLHTSLDMSRHENVFLGLTLSSKSAGLKGFQLAFVPGLLQGTGGYLDGPLPTPVDNPRVGLEVGLRLSLPPLPPCPGVHIQSSQTVESSGLYTLQSILKAQLVKEDKDAQFYCELNYRLPSGNHMKESREVTVPVFYPTEKVWLEVEPVGMLKEGDRVEIRCLADGNPPPHFSISKQNPSTREAEEETTNDNGVLVLEPARKEHSGRYECQGLDLDTMISLLSEPQELLVNYVSDVRVSPAAPERQEGSSLTLTCEAESSQDLEFQWLREETGQVLERGPVLQLHDLKREAGGGYRCVASVPSIPGLNRTQLVNVAIFGPPWMAFKERKVWVKENMVLNLSCEASGHPRPTISWNVNGTASEQDQDPQRVLSTLNVLVTPELLETGVECTASNDLGKNTSILFLELVNLTTLTPDSNTTTGLSTSTASPHTRANSTSTGKPGLAREQGCARASFLPCPSPESPVQKGE
With B1, the transendothelial permeability entry in the assay on ECFC [5] is reported as “nor treatment with recombinant proteins corresponding to these variants modified transendothelial permeability”. Besides, the “vascularisation” value in assay [1] is listed as “increased vascularisation”. In the assay on ECFC [2], the endothelial cells proliferation entry is listed as “increased endothelial cells proliferation”.

B2: rh-I10-sCD146: recombinant spliced variant of soluble CD146 containing intron 10, SEQ ID NO: 9 (protein, listed as Homo sapiens)
chain: MGLPRLVCAFLLAACCCCPRVAGVPGEAEQPAPELVEVEVGSTALLKCGLSQSQGNLSHVDWFSVHKEKRTLIFRVRQGQGQSEPGEYEQRLSLQDRGATLALTQVTPQDERIFLCQGKRPRSQEYRIQLRVYKAPEEPNIQVNPLGIPVNSKEPEEVATCVGRNGYPIPQVIWYKNGRPLKEEKNRVHIQSSQTVESSGLYTLQSILKAQLVKEDKDAQFYCELNYRLPSGNHMKESREVTVPVFYPTEKVWLEVEPVGMLKEGDRVEIRCLADGNPPPHFSISKQNPSTREAEEETTNDNGVLVLEPARKEHSGRYECQGLDLDTMISLLSEPQELLVNYVSDVRVSPAAPERQEGSSLTLTCEAESSQDLEFQWLREETGQVLERGPVLQLHDLKREAGGGYRCVASVPSIPGLNRTQLVNVAIFGEALPLGRDQVTPSGVVFKLFDKKPPAALGSSGAEGEAG
Take B2: in the assay with ECFC [5], the transendothelial permeability result is reported as “nor treatment with recombinant proteins corresponding to these variants modified transendothelial permeability”. The “vascularisation” value in assay [1] is “increased vascularisation”. In the assay with ECFC [2], the endothelial cells proliferation result is “increased endothelial cells proliferation”.
